Test results taken from patent US7070969 (UNIVERSITY OF QUEENSLAND, dated 2006).

Tests used:
[1] = biological target: T1, Human plasmin (human, UniProt P00747 97-810); test: comparison of Table 3 Ki values; reference aprotinin (Willmott et al., 1995)
T1 construct: mature

[2] = biological target: T1, Human plasmin; test: progress curves of S-2251 hydrolysis, 2 nM plasmin, n = 6, global fit to Eq. 1-3
[3] = biological target: T1, Human plasmin; test: progress curves of S-2251 hydrolysis, 18 nM plasmin, n = 6, global fit to Eq. 1-3
[4] = biological target: T1, Human plasmin; test: plasmin inhibition kinetics (kinetic profile)

T1 sequence (P00747 97-810): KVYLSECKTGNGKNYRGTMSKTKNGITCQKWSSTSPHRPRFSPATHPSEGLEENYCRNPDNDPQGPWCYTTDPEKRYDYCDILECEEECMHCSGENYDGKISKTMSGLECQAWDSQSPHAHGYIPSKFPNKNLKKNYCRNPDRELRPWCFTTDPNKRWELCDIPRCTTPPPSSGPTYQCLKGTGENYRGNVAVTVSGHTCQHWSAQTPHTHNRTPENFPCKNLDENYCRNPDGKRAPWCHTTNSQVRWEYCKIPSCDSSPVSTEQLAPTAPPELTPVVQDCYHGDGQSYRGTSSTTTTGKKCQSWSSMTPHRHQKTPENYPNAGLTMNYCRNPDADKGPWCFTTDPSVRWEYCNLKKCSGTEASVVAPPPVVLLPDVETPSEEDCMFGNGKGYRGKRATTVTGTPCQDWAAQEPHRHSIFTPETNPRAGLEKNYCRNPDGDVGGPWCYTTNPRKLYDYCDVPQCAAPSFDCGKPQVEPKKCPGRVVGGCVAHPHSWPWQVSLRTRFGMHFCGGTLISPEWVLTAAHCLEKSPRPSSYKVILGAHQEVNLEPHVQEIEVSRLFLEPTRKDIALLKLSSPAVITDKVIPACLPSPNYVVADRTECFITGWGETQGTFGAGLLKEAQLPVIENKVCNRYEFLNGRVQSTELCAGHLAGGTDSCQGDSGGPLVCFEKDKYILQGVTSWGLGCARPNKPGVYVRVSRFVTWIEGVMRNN

| Binder | fold difference of Ki against aprotinin [1] [fold] | Ki [2] [nM] | Ki [3] [nM] | Ki [4] [nM] |
| --- | --- | --- | --- | --- |
| Textilinin 1 (other, also called Txln 1) KDRPDFCELPADTGPCRVRFPSFYYNPDEKKCLEFIYGGCEGNANNFITKEECESTCAA | ~100 | 3.5 | 2.6 |  |
| Textilinin 2 (other, also called Txln 2) KDRPELCELPPDTGPCRVRFPSFYYNPDEQKCLEFIYGGCEGNANNFITKEECESTCAA | ~100 | 2.2 | 2.8 | 2 |
